In US20240122985A1, “ANTIBODIES, COMBINATIONS COMPRISING ANTIBODIES, BIOMARKERS, USES & METHODS” (KYMAB LIMITED, priority 2016, published 2024):
“And” between values parts separate entries of the source, which are not always exact repeats. Equal values may be shown once.

Legend:
[1] = KY1005 pharmacokinetic (PK) analysis (OX40L capture ECL, MSD); type: in vivo, Rhesus macaque; conditions: mono-prophylaxis, 10 mg/kg once weekly (FIG. 16A)
Method: For PK analysis, serum samples were collected 30 minutes before and 30 minutes after each infusion of KY1005 and then once weekly after the last dose was given. The KY1005 concentration was measured using an antigen (OX40L) capture electrochemiluminescence (ECL) assay on the MSD platform. In this assay, an MSD streptavidin 96-well plate is first coated with biotinylated-OX40L, followed by the addition of test samples, followed by the detection of bound KY1005 by a ruthenylated anti-human IgG (pre-adsorbed against monkey serum for added specificity).

[2] = system: peripheral blood or T-cell donor chimerism; assay: Donor chimerism in rhesus HSCT recipients (microsatellite markers); type: in vivo, Rhesus macaque; conditions: per animal
Method: Peripheral blood or T-cell (CD3^+/CD20−) chimerism was determined using divergent donor- and recipient-specific MHC-linked microsatellite markers, by comparing peak heights of the donor- and recipient-specific amplicons (Penedo M C et al, (2005) “Microsateliite typing of the rhesus macaque MHC region”, Imunogenetics 57:198-209).
Flow cytometrically-sorted T-cells (CD3^+/CD20−) were analysed for donor chimerism based on divergent microsatellite markers. Chimerism analysis was performed at the UC Davis veterinary genetics laboratory as previously described (Larsen et al., 2010; Kean et al., 2007).

[3] = target: Rhesus monkey OX40L; assay: Surface plasmon resonance, apparent affinity to rhesus OX40L; type: binding, Rhesus (Macaca mulatta); conditions: SPR, 25° C.; CNROR = Cannot resolve off-rate
Method: SPR analysis was carried out using the ProteOn™ XPR36 Array System (BioRad). Anti-mouse IgG (GE Healthcare BR-1008-38) was immobilised on a GLM biosensor surface using amine coupling, the surface was then blocked using 1 M ethanolamine. Test antibodies were captured on this surface and recombinant hOX40L (human and rhesus) were used at a single concentration of 256 nM, binding sensorgrams were double referenced using a buffer injection (i.e. 0 nM) to remove baseline drift and injection artefacts. Apparent affinities for the OX40L-antibody interaction were determined using the 1:1 model inherent to the ProteOn XPR36 analysis software. The assay was run using HBS-EP (Teknova) as running buffer and carried out at 25° C.

Chain of Rhesus monkey OX40L (as listed by the source): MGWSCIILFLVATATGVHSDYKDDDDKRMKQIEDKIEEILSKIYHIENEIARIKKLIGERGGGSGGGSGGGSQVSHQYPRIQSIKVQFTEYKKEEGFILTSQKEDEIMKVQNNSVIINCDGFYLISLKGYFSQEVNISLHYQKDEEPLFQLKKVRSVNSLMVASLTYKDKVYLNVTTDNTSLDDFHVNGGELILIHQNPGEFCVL

KY1005: antibody used for GVHD immunoprophylaxis in NHP, measured by antigen (OX40L) capture assay; not tied to 02D10 in this part
KY1005 trough [1]: 107.9 ± 11.7 mg/L

B1: 2D10 IgG4PE: fully human anti-human OX40L monoclonal antibody, human IgG4-PE; VH Seq ID No:34, VL Seq ID No:48; 2D10-1 to -4 are stable pools (antibody, V domains shown)
VH: EVQLVESGGGLVQPGGSLRLSCAASGFTFSNYAMNWVRQAPGKGLEWVSTISGSGGATRYADSVKGRFTISRDNSRNTVYLQMNSLRVEDTAVFYCTKDRLIMATVRGPYYYGMDVWGQGTTVTVSS
VL: DIQMTQSPSSLSASVGDRVTITCRASQSISSYLNWYQQKPGKAPNLLIYAASSLQSGVPSRFSGSGSETDFTLTISSLQPEDFATYYCQQSHSVSFTFGPGTKVDIK
modifications: human IgG4-PE constant regions; 02D10 - VH Amino Acid Sequence; 02D10 - VL Amino Acid Sequence
Peak peripheral blood donor chimerism ([2]; 2D10 IgG4PE Rhesus GvHD Study): 88% and 99% (2×) and 100% | Whole Blood Chimerism (%) Day 0 ([2]; Day 0): 0% | Whole Blood Chimerism (%) Day 1 ([2]; Day 1): 16.6% and 5.7% and 22.9% | Whole Blood Chimerism (%) Day 4 ([2]; Day 4): 6.6% | Whole Blood Chimerism (%) Day 5 ([2]; Day 5): 91.4% and 66.3% and 31.7% and 68.2% | Whole Blood Chimerism (%) Day 7 ([2]; Day 7): 27.5% | Whole Blood Chimerism (%) Day 8 ([2]; Day 8): 98.4% and 97.4% and 66.3% and 82.9% | Whole Blood Chimerism (%) Day 11 ([2]; Day 11): 90.4% | Whole Blood Chimerism (%) Day 12 ([2]; Day 12): 98.6% and 99.5% and 82.3% and 92.1% | Whole Blood Chimerism (%) Day 14 ([2]; Day 14): 81.8% | Whole Blood Chimerism (%) Day 15 ([2]; Day 15): 99.1% and 99.4% and 88.2% and 97.5% | Whole Blood Chimerism (%) Day 16 ([2]; Day 16): 79.8% | Whole Blood Chimerism (%) Day 18 ([2]; Day 18): 19.7% | Whole Blood Chimerism (%) Day 20 ([2]; Day 20): 99.2% and 98.4% | Whole Blood Chimerism (%) Day 21 ([2]; Day 21): 0% | Whole Blood Chimerism (%) Day 23 ([2]; Day 23): 98.6% and 98.8% | Whole Blood Chimerism (%) Day 26 ([2]; Day 26): 98.7% | Apparent Affinity RhsOX40L (nM) [3]: CNROR
